Here are results for 24 sequences from the DeepSol protein solubility set.

This series can be described thus: soluble on expression in E. coli; label from the status in PepcDB or PDB records.
As to “MCLLTFAYQTNKRFPFVFAANRDEYYDRPTLFAHEWKEDPNVIGGRDLKKGGTWLGFTKEGKIAALTNVRDSFKHSGIPFQSRGFIVQDYLTSNTSAQLFMERLIQTADEFDGYNLVFGSYHDLYYYTNRMEKGEKLKPGYYMLSNGQMNSHWPKAVKVRTHLQSVLEREQDIETIIKKLLAIMQDEERFPDEQLPDTGVGIEWERILSPIFINGKTYGTRATTVIICTDEGESFFLEWNYGPMGIFLEKREFHIQLPSSYLNMKKDYELEHHHHHH”, the “soluble on expression in E. coli” value is given as “not soluble”.

As to “MSLRVFLTGATGFVGSHVLKELLAAGHQVTGLTRSDAGGRWLVQAGASVHRGTLEDAGSLARGAEQADAVIHTAFDHVFSRYLENCAKDARVISAMAEVLKGSNRPLIITSATGIGAPGAGLPAVEEVVDWAHALPRIASERAGREAADKGVSVAVVRLPQVHDTEKQGLISPLIDIGRAKGVSAYVGDGSNHWSAVHIDDAARLYRLALEHHEAGARYHAVAEEGVSMRQIAETIGAGLGVPVLALQADEVVGHFGWLAPFMAMDMRASSAATRRRLNWTPTGPDLLTDLKAMDYRKLRTASEGHHHHHH”, the “soluble on expression in E. coli” value was “soluble”.

Consider “MSERIASVERTTSETHISCTIDLDHIPGVTEQKINVSTGIGFLDHMFTALAKHGGMSLQLQCKGDLHIDDHHTAEDCALALGEAFKKALGERKGIKRYGYAYAPLDESLSRAVIDISSRPYFMCHLPFTREKVGDLSTEMVSHLLQSFAFAAGVTLHIDSIRGENNHHIAESAFKALALAIRMAISRTGGDDVPSTKGVLAL”, for which the “soluble on expression in E. coli” value was “soluble”.

Consider “MAHCLHPEKFFPVVKSVALPPGSLNGKVALVTGGGTGLGKAIATTFAHLGASVAIAARRLDVLEKTADEIRSSTGGVCEPFQMDVKDPAKVAKAFDAVEKKLGHTPDILINNAAGNFIMATERLSPNAYGTIIDIVLKGTLHVTTELGRRCIQQKRGASVLSITTLYAQSGAPFVVPSAVSKAGVENMTKSLASEWAKHGLRFNAIAPGPIPTEGAFGRLFAGELKDSGDAMKASVPVGRLGHPEEIANLAAFMSSDFMSWMNGAIIDFDGGQQHIHHGSHMGQFLHEWDNEKWEETENLIRGRTGKEKKSKL”, for which the “soluble on expression in E. coli” value is listed as “soluble”.

In the case of “MWDVIVVGGGPSGLSAALFLARAGLKVLVLDGGRSKVKGVSRVPNYPGLLDEPSGEELLRRLEAHARRYGAEVRPGVVKGVRDMGGVFEVETEEGVEKAERLLLCTHKDPTLPSLLGLTRRGAYIDTDEGGRTSYPRVYAAGVARGKVPGHAIISAGDGAYVAVHLVSDLRGEPYKDHAL”, the “soluble on expression in E. coli” value is “soluble”.

Turning to “MAGGLFKLMKDKSVDHSHLHKDHSIHHPTPPRSFFSSSSLAVHPNVETAQSSSEEDLRMPNIKVFSGSSHPDLSTRICERLQLEVSKASLKKFSNKETNVEIGESVRGEDVYIIQSAAGEINDNLMELLIMINACKIASSCRVAAVIPAFPYARQDKKDKSRAPISAKLVANMLSVAGADHIITMDLHASQIQGFFDIPVDNLYAEPAILKYIKESIPNWQTSVIVSPDAGGAKRVTSIADRLNVDFALIHKESKRANEVEKMTLVGSVEGKVAILVDDMADTCGTICMAADKLVEAGADKVYAFCVHGIFSGPALTRLNASKFEAVVVTNTIPQDENMKKCSKIQCIDISMILAEAIRRTHNGESVSYLFSHVPIC”, the “soluble on expression in E. coli” value was “not soluble”.

For “MPAPDPMRGDPPHPAPPRLRSPLDPTSGDPLHPAPPRLRSPLDPTSGDPLHPAPPRLRSPLDPTSGDPLHPAPPRLRSPLVLLDGASMWFRSFFGVPSSITAPDGRPVNAVRGFIDSMAVVITQQRPNRLAVCLDLDWRPQFRVDLIPSYKAHRVAEPEPNGQPDVEEVPDELTPQVDMIMELLDAFGIAMAGAPGFEADDVLGTLATRERRDPVIVVSGDRDLLQVVADDPVPVRVLYLGRGLAKATLFGPAEVAERYGLPAHRAGAAYAELALLRGDPSDGLPGVPGVGEKTAATLLARHGSLDQIMAAADDRKTTMAKGLRTKLLAASAYIKAADRVVRVATDAPVTLSTPTDRFPLVAADPERTAELATRFGVESSIARLQKALDTLPG”, the “soluble on expression in E. coli” value is recorded as “not soluble”.

As to “MGSDKIHHHHHHMDFQEKIEELRKIIKDNIEPLITSDYVHLDNPYHGNIGDILIWEGERQFLSSIKYKCLQSSSNSWCENYLHPETVILFNGGGNFGDLYRECQDFRLRVIEQFPNNRIIMFPQSIWYEDESLIAKDAAVMARHNDLTLCARDKWSYNFLKEHFGKNKILLVPDMAFYISDEYLNKYRECVFWGQKLYLRRIDKEMDFSTILDDLRGFDIRDWPSLERRPICLLILRIMKRAAYYLQKITCLTVLQRFVNRLADEYAIRIVRPYLLKRGCDFISPYSEVITTRLHGLILSILFHKPVYYINNTTGKLSAYVDTWHLQDILEVSPYVDKILEKHVD”, the “soluble on expression in E. coli” value is given as “not soluble”.

For “MSKLTAAYNKTRECVVTRSKIMMGYPEARYPTIPKILKKTADFQKLEGSKDRIAFTLSQEPIADKKCTEMIKNVLLEQFQDTDIPANYIAVSMALPNFKIGQNCHDFQPLDWYKNIKGYFTYKKITEQVQAAYFNDEAGNQFLAGVCYYATPAGKWVAKLQTEQTLLRFEFQKAEPFPLNSKSRFDTKAFKKFARYGRYCETEGCRVLVWVGKADGQIVHLNYHPVYCMQWTKGCAECAKDHFEYMWIAPEEPVVQKSKEEDYILKAPEDKDLSDFDQLSDVLNVDAISLH”, the “soluble on expression in E. coli” value is “not soluble”.

As for “MSLKMRNNVFVFDSPYCLLIYCILFNHQLHDTIYIYSDNVSLRDINFPGKERYIIKKGNNKTSKIFYYFCFLFRLIINPKLRKLISNRKDYRFLGQDHLFFSKPFLNEFILLEDGLANYRYPHYSRLYKLIIGGHTFGRSTKVNKILLSGMIDIIDPTINDKVEFFDLIAAWEKLNSVQKKEINHIFNYCIEDELVADVMILTQPLSEDGFISENEKIRLYDEIIKEYDDKKIVIRQHPRELTDYSLYFKDVKVNKVKAPVELVVLNSPMIKTAVTLFSGGIFNIPCREKIFKGTSFSPLLSKHFGNISNKFEVKGKKEGHHHHHH”, the “soluble on expression in E. coli” value is “soluble”.

For the sequence “MSTLAPLFLAKHPDGEERQVIRPNVWETSCADTETLSIFHIEGMADPDLLCRVLNLFAVQSFTPERVRADREDHKIRLLLTFPGLSQHRASVIAEKLRSLVTVLAVRLEFSPHAGKVRPSVSEPLLASVV”, the “soluble on expression in E. coli” value is on record as “not soluble”.

In the case of “MEKEQLIEIANTIMPFGKYKGRRLIDLPEEYLLWFARKDEFPAGKLGELMQITLLIKNEGLTQLVQPLKRPL”, the “soluble on expression in E. coli” value was “soluble”.

On to “MLREIPTHLIGGPLGAGKTSLIRSLLAQKPAGERWAVLVNEFGEIGLDAALLATDVDGVAIGEVAGGCLCCVNGVPFQVGLGRLLRRARPDRLFIEPSGLGHPQALWKQLQAPPWSGVLALQPLVVVLDAAALASGQPLPEAQEQALEAAGMLLLNKSETLDATQRCAVRARLPVLPLRWSVRGHLALRDLPTSVAGEGSATTWAALPEAPAQLGTVLLAERPLRAVREQDGQFAIGWRRRCVSIGPQWTPGLEHHHHHH”, for which the “soluble on expression in E. coli” value is recorded as “not soluble”.

Regarding “MGSDKIHHHHHHMVYVGTSGFSFEDWKGVVYPEHLKPSQFLKYYWAVLGFRIVELNFTYYTQPSWRSFVQMLRKTPPDFYFTVKTPGSVTHVLWKEGKDPKEDMENFTRQIEPLIEEQRLKMTLAQFPFSFKFSRKNVEYLEKLRESYPYELAVEFRHYSWDREETYEFLRNHGITFVVVDEPKLPGLFPYRPITTTDYAYFRFHGRNERWFEAEGEERYDYLYSEEELKTLFEDVVELSRRVKETYVFFNNCYKGQAAINALQFKKMLEERV”, the “soluble on expression in E. coli” value is “soluble”.

For the sequence “MGSDKIHHHHHHMSRTLHAQTHAWLKVFAISARHLSFTRAAEELHVTTGAVSQQIKQLETRLGFKLFRRLPRRLELTDEGQRLAAVVDQAYDAVGQEVRRLRTGVMSGVLRLRCVPSFLAKWLMPRLTRLQARFPDIELHVASEDSNLSLREGEFELAIDLNDGRYAGFQITTLMDEEIFAVCSPQLLRRRPPLVRPDDLGYYPLLHDVTAWRGSHDYAEWEHYLHALGAASVNVQRGYTFNRNHLTVEAAIAGMGVAIARRTLITNELDTGALIAPFAGTVATGKSYGLVYHPGALDDRRVRAVHDWIVEEAARSTAH”, the “soluble on expression in E. coli” value was “not soluble”.

Turning to “SEAVRPDSCESGPAAPRAEERPAPEARVHFRVTRFIMEAGVKLGMQSIPIATACTIYHKFFCEINLDAYDLYLVAMSSIYLAGKVEEQHLRTRDIINVSHRYFNPGSEPLELDSRFWELRDSIVQCELLMLRVLRFQVSFQHPHKYLLHYLISLKNWLNRYSWQRTPISVTAWALLRDSYHGGLCLRFQAQHLAVAVLYLALQVYGVEVPAEGEAEKPWWQVFSDDLTKPIIDNIVSDLIQIYTMDTEIP”, the “soluble on expression in E. coli” value is listed as “soluble”.

As for “QADMPLERIIEAEKRVECNDPLVALVVNENNTTVNNICQATHKQLFQLVQWAKLVPHFTSLPLTDQVQLLRAGWNELLIAAFSHRSMQAQDAIVLATGLTVNKSTAHAVGVGNIYDRVPSELVNKMKEMKMDKTELGCLRAIILYNPDVRGIKSVQEVEMLREKIYGVLEEYTRTTHPNEPGRFAKLLLRLPALRSIGLKCLEHLFFFKLIGDVPIDTFLMEMLEGTTDS”, the “soluble on expression in E. coli” value is “soluble”.

Turning to “NKMPVIEVQGIVPTEIIVSPRYYRMGFVGGDLSVPVGQFVFRGEAAFNIDKHFTYKSHAEQEGFQTINWLAGADWYAPGEWMISGQFSMESIFRYRDFISQRQHSTLITLNVSKKFFGSTLQLSDFTYYDLTGKGWFSRFAADYALNDQIHLMAGYDWFSSKGSGIFDRYKDNSELWFKARYSF”, the “soluble on expression in E. coli” value is “not soluble”.

Consider “MMKTVLIYYPFSLAAERNSGSKLRPYEMHQAFLRWGAKEGVDVLLIAGTSAEREKQFQELRSQGKLDDVWFCYMENQTIPLWLTDPGHRSQRPFVDRDVLRYLKARNVPIGVFYRDVYWKFPDLYPLRGWKKAAMQMMYRWEERFYERYCDVIFLPSLEMGTYVAIRRPMVDLPPGGKQKPFQRFGTAKQPLNAIYVGGINNADYGLLLLLEAIRLANRRKPLVSLTVVCRKDEYERQPLAVKEELAALQVRVEHVSGEALDRLYAEMDFAFIPRRRSEYNDFSVPVKLVDYLSSGLPIVATACSAQKRLIEADGYGVICDDNPSSMAEAIAKMADMLEECRLRIAQTFMAKHSWEARVEKVKETLVGGLR”, for which the “soluble on expression in E. coli” value was “not soluble”.

In the case of “MGHHHHHHSHGESEDVTQFLQSHKKTLTNEKLFLMDGKRTWFLEMESTPGEDAMNTVKMTTKDLKYDRSLIDKAGFERTDSNFERSHTVGKMLSNSIMCYRDIFYERESQLMQQTSLLSYEIAIATPTFSNYYPDWSAPINIVARPSTSKKIMTC”, the “soluble on expression in E. coli” value is “not soluble”.

Turning to “GPGSMRNYNNFNRVWKAPRRPFEKERLDREMKLCGQYGLRCKREIWRVNMTLSKMRRTARLLLTLPENHPRRLLEGSAIMRRCHEYGFLDEEKDKLDYVLSLTVPDILERRLQTIVFKAGLAKSVHHARVLIQQRHIAVAKQIVTIPSFIVRVSSERHIAFADASPFGNGRAGRVKRVRAKAAKRHAGGGDDDE”, the “soluble on expression in E. coli” value was “not soluble”.

Regarding “MKRADDFQQRRAHLANLSDEELQTRFWEMAEKIVDPLLDLGKKNTTPSIERSVLLRMGFSSLEAKAIVDKTMDRGLMGKGAGHIVYKIAKEKNISVREAGLALSEGKYWDDAIQIFKGGVK”, the “soluble on expression in E. coli” value is on record as “soluble”.

With “GLNSVIKPTKYKPVPDEEPNSTDVEETLKRIQNNDPDLEEVNLNNIMNIPVPTLKACAEALKTNTYVKKFSIVGTRSNDPVAFALAEMLKVNNTLKSLNVESNFISGSGILALVEALQSNTSLIELRIDNQSQPLGNNVEMEIANMLEKNTTLLKFGYHFTQQGPRLRASNAMMNNNDLVRKRRL”, the “soluble on expression in E. coli” value is “soluble”.

In the case of “MSEILFINGKVRFPITIDPTVWIFDDRKVDLTTYFDETRENTSELETYLKNTSEHWDREIRDGAAFPPIQQSVKKYKKEQLITGTFGIPFHPFLANAEILEDATQVEIETVDHTMTLPLETVKNAILGFSKEGKPLKEDGPVHLYFNDGSNQQNPIRNIRKFTII”, the “soluble on expression in E. coli” value was “not soluble”.
